The results in this text go back to patent US20200148774A1 (Genentech, published 2020).

Residue numbers refer to the chain shown, from its start. Bounds are passed on as bounds.

Sequences and labels used below:
T1: human CLL-1 on cells (endogenous on HL-60, EOL-1 and other AML cell lines and CD14+ monocytes); recombinant on … (human, UniProt Q5QGZ9 1-265)
T1 sequence: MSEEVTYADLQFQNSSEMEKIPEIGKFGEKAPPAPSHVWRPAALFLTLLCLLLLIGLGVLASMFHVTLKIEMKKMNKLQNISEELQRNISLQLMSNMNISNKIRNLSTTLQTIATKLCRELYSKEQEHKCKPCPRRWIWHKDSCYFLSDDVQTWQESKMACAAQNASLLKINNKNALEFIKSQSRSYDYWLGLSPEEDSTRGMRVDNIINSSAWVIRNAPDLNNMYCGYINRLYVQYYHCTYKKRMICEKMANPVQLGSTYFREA

T2: recombinant human CLL-1 extracellular domain (ECD, amino acids 65-265) fused to an N-terminal Flag (human, UniProt Q5QGZ9 65-265)
T2 construct: The construct and the K244Q SNP are stated for the immunogen; they are not written as a piece; also called huCLL-1-Flag; huCLL-1
T2 chain: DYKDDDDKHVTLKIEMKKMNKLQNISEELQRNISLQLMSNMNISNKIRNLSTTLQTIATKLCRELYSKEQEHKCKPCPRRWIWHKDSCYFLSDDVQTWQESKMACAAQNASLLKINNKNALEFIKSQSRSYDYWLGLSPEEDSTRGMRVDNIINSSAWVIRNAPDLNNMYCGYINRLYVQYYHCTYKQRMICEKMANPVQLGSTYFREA

T3: recombinant cynomolgus CLL-1 extracellular domain (ECD, amino acids 65-265) fused to an N-terminal Flag (cynomolgus monkey)
T3 construct: Construct stated for the immunogen; also called CynoCLL-1 Flag; cynoCLL-1
T3 chain: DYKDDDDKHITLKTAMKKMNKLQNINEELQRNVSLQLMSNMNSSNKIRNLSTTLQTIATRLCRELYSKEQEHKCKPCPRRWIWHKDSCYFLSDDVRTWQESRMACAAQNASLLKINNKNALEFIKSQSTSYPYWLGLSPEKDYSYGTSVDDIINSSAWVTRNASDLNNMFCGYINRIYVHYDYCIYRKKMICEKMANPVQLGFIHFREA

B1: 6E7.L4H1eA54×38E4v1 TDB (bispecific antibody, V domains shown)
VH 1: EVQLVQSGAEVKKPGASVKVSCKASGYSFTDYYMHWVRQAPGQGLEWIGRINPYAGAAFYSQNFKDRVTLTVDTSTSTAYLELSSLRSEDTAVYYCAIERGADLEGYAMDYWGQGTLVTVSS
VL 1: DIQMTQSPSSLSASVGDRVTITCRASQSVSTSSYNYMHWYQQKPGKPPKLLIKYASNLESGVPSRFSGSGSGTDFTLTISSLQPEDFATYYCQHSWEIPLTFGQGTKVEIK
VH 2: EVQLVQSGAEVKKPGASVKVSCKASGFTFTSYYIHWVRQAPGQGLEWIGWIYPENDNTKYNEKFKDRVTITADTSTSTAYLELSSLRSEDTAVYYCARDGYSRYYFDYWGQGTLVTVSS
VL 2: DIVMTQSPDSLAVSLGERATINCKSSQSLLNSRTRKNYLAWYQQKPGQSPKLLIYWTSTRKSGVPDRFSGSGSGTDFTLTISSLQAEDVAVYYCKQSFILRTFGQGTKVEIK
B2: 20B1×38E4v1 TDB (bispecific antibody, human IgG1, V domains shown)
VH 1: EVQLQQSGPELVKPGALVKISCKASGYTFTSYDINWLKQRPGQGLEWIGWIYPGDGTTEYNERFKGKATLTADKSSSTAYLQLSSLTSENSAVYFCARSYDYDYAMDYWGQGTSVTVSS
VL 1: DIVLTQSPAIMSASPGEKVTMTCSASSSISYMYWYQQKPGTSPKRWIYDTSKLASGVPARFSGSGSGTSYSLTISSMEAEDAATYYCHQRSSWTFGGGTKLEIK
VH 2: B1 VH 2
VL 2: B1 VL 2
B3: 28H12×38E4v1 TDB (bispecific antibody, human IgG1, V domains shown)
VH 1: QVQLQQSGAELVKPGASVKLSCTASGFNIKDTYMHWVKQRPEQGLEWIGRIDPANGDTDYDPKFQGKATVTADTSSNTAYLQLSSLTSEDTAVYYCTISGPPYYVMDYWGQGTSVTVSS
VL 1: DIQMTQSPASLAVSLGQRATISCRASQSVSSSSYSYMHWYQQKPGQPPKLLIKYASNLESGVPARFSGRGSGTDFTLNIHPVEEEDTATYYCQHSWEIPYTFGGGTRLEIK
VH 2: B1 VH 2
VL 2: B1 VL 2
B4: h21C9 (h21C9.L2H3)×38E4v1 TDB (bispecific antibody, V domains shown)
VH 1: EVQLVQSGAEVKKPGASVKVSCKASGYTFTDYYLDWVRQAPGQGLEWIGRVNPYNGGTIYNQKFKGRVTLTRDTSTSTAYLELSSLRSEDTAVYYCARDHYRYDPLLDYWGQGTLVTVSS
VL 1: DIQMTQSPSSLSASVGDRVTITCKASQDVSTAVAWFQQKPGKAPKLLIYSPSYRYTGVPSRFSGSGSGTDFTLTISSLQPEDFATYYCQQLYSTPYTFGQGTKVEIK
VH 2: B1 VH 2
VL 2: B1 VL 2
B5: 38E4v1 Fab (Fab, V domains shown)
VH: B1 VH 2
VL: B1 VL 2
notes: Fab; also called 38E4v1 (Fab Biacore measurements)
B6: humanized 6E7 variant CDRs graft+K49(LC)+(A67, L69, V71, K73 (HC)) (antibody, V domains shown)
VH: B1 VH 1 with A55N, V68A, T74K
VL: B1 VL 1
B7: humanized 21C9 variant CDRs graft+(F36 and S43(LC))+L69 (HC) (antibody, V domains shown)
VH: B4 VH 1
VL: B4 VL 1 with A43S
B8: 6E7.L4H1eE54 (antibody, V domains shown)
VH: B1 VH 1 with A55E
VL: B1 VL 1
notes: IgG
B9: 6E7.L4H1eS54 (antibody, V domains shown)
VH: B1 VH 1 with A55S
VL: B1 VL 1
notes: IgG
B10: 21C9.L2H3A54 (antibody, V domains shown)
VH: B4 VH 1 with N55A
VL: B4 VL 1
B11: 21C9.L2H3S54 (antibody, V domains shown)
VH: B4 VH 1 with N55S
VL: B4 VL 1
B12: 21C9.L2H3E54 (antibody, V domains shown)
VH: B4 VH 1 with N55E
VL: B4 VL 1
B13: 21C9.L2H3D54 (antibody, V domains shown)
VH: B4 VH 1 with N55D
VL: B4 VL 1

The target in the first assay is T1, human CLL-1 on cells (endogenous on …). The assay is described as follows: cell-based or functional assay.
In the case of B1, the “Cell killing EC50 (EOL-1 cells, human CD8+ T cells)” value (“Cell killing EC50” for short) came to 0.034 µg/mL.
On to B2, for which the “Cell killing EC50” value was determined as 0.531 µg/mL.
Regarding B3, the “Cell killing EC50” value is over 1 µg/mL.

The next assay shares this target. The assay is described as follows: cell-based or functional assay. This is another data set of the same source.
As to B4, the “EC50 of killing of EOL-1 (other donors)” value was 0.0163 µg/mL.

The next assay deals with T4, hCD3ε (human, UniProt P07766 23-126).
T4 construct: Also used for the value printed only as 'hCD3 (0.05 nM'); also called human CD3ε polypeptide
T4 sequence (P07766 23-126): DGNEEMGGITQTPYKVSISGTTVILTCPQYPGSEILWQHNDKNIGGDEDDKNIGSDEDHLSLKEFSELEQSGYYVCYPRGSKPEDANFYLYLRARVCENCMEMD
Briefly: SPR (Biacore), Fab. A general note: In SPR one partner is held on a chip, and binding of the other changes the refractive index at the surface.
Turning to B5, the dissociation constant Kd is 0.389 nM, the koff was found to be 0.00317 s⁻¹ and the kon turned out to be 8.15e+06 M⁻¹ s⁻¹.

Another assay has as its target T1, human CLL-1 on cells (endogenous on …). Briefly: cell-based or functional assay. The source holds these as a separate data set.
Regarding B4, the “average killing EC50, EOL-1” value amounted to 0.0511 µg/mL; the “average killing EC50, HL-60” value is 1.76 µg/mL; the “average killing EC50, human autologous CD14+” value came to 14.8 ng/ml.

In the next assay the target is T2, recombinant human CLL-1 extracellular …. The assay is described as follows: SPR (Biacore T200), IgG captured by anti-human Fc, human CLL-1 as analyte. Here is the method:
The binding affinity of the antibodies in this section was determined by BIAcore™ T200 Format. Briefly, BIAcore™ research grade CM5 chips were activated with 1-ethyl-3-(3-dimethylaminopropyl) carbodiimide (EDC) and N-hydroxysuccinimide (NHS) reagents according to the supplier's instructions. Goat anti-human Fc IgGs were coupled to the chips to achieve approximately 10,000 response units (RU) in each flow cell. Unreacted coupling groups were blocked with 1M ethanolamine. For kinetics measurements, antibodies were captured to achieve approximately 300 RU. Three-fold serial dilutions of human CLL-1 was injected in HBS-P buffer (0.01M HEPES pH7.4, 0.15M NaCl, 0.005% surfactant P20) at 25° C. with a flow rate of 30 μl/min. Association rates (kon) and dissociation rates (koff) were calculated using a 1:1 Langmuir binding model (BIAcore™ T200 Evaluation Software version 2.0). The equilibrium dissociation constant (Kd) was calculated as the ratio koff/kon.
In the case of B6, the equilibrium dissociation constant (Kd) worked out at 1.4 nM.
Still for that read-out and setting: with B7 the figure was 10.5 nM.

Another assay shares this target. Briefly: SPR (Biacore T200), IgG captured by anti-human Fc, CLL-1 as analyte.
As to B8, the Kd came to 5.09 nM, the off-rate (koff) was 0.00248 s⁻¹ and the kon is 488000 M⁻¹ s⁻¹.
The matching figures for B9: 14.1 nM, 0.0072 s⁻¹ and 510000 M⁻¹ s⁻¹.
For B10 the same measures were 622 nM, 0.0692 s⁻¹ and 111000 M⁻¹ s⁻¹.
The matching figures for B11: 286 nM, 0.0405 s⁻¹ and 142000 M⁻¹ s⁻¹.
B12: the Kd came to 862 nM, the koff stood at 0.0882 s⁻¹ and the kon is 102000 M⁻¹ s⁻¹.

The target of the next assay is T3, recombinant cynomolgus CLL-1 …. The assay is described as above.
As to B8, the equilibrium dissociation constant (Kd) was 4.26 nM, the koff turned out to be 0.00283 s⁻¹ and the association rate constant (kon) was 664000 M⁻¹ s⁻¹.
For B9 the same measures were 6.37 nM, 0.00327 s⁻¹ and 513000 M⁻¹ s⁻¹.
In the case of B10, the Kd turned out to be 48200 nM, the dissociation rate constant (koff) was 0.0215 s⁻¹ and the kon is 445 M⁻¹ s⁻¹.
B11: the dissociation constant Kd was determined as 5670 nM, the off-rate constant (koff) was determined as 0.0207 s⁻¹ and the kon was 3660 M⁻¹ s⁻¹.
For B13 the same measures were 217 nM, 0.00885 s⁻¹ and 40700 M⁻¹ s⁻¹.
For B12 the same measures were 49600 nM, 0.0371 s⁻¹ and 748 M⁻¹ s⁻¹.

As usually defined, the Kd is the concentration at which binding is half-saturated. By koff is commonly meant the first-order rate constant of dissociation. Broadly, the kon is a measure of how fast the partners come together.
